From patent US20160297884A1 (Pfizer, published 2016)
Positions count from the first letter of the chain named.

T1: Human BCMA (human, UniProt Q02223 1-54, limits assumed)
T1 construct: Soluble analyte in SPR; construct not described; also called huBCMA; B-cell maturation antigen
T1 sequence (looked up): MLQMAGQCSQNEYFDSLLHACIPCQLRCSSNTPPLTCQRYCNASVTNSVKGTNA

T2: Human BCMA (human, UniProt Q02223 1-54, limits assumed)
T2 construct: also called huBCMA; B-cell maturation antigen
T2 sequence (looked up): T1 sequence (looked up)

B1: L3.PY/H2.DY (antibody, V domains shown)
VH: EVQLLESGGGLVQPGGSLRLSCAASGFTFGSYAMTWVRQAPGKGLEWVSAIDYSGGNTFYADSVKGRFTISRDNSKNTLYLQMNSLRAEDTAVYYCARVSPIASGMDYWGQGTLVTVSS
VL: EIVLTQSPGTLSLSPGERATLSCRASQSVSSSYLAWYQQKPGQAPRLLIYGASSRATGIPDRFSGSGSGTDFTLTISRLEPEDFAVYYCQHYPYPPSFTFGQGTKVEIK
notes: IgG
B2: L3.PY/H2.HA (antibody, V domains shown)
VH: B1 VH with D52S, Y53H, S54A
VL: B1 VL
notes: IgG
B3: L3.PY/H2.LT (antibody, V domains shown)
VH: B1 VH with D52S, Y53L, S54T
VL: B1 VL
notes: IgG
B4: L3.PY/H2.QL (antibody, V domains shown)
VH: B1 VH with D52S, Y53G, S63Q, V64L
VL: B1 VL
notes: IgG
B5: L3.PY/H2.QR (antibody, V domains shown)
VH: B1 VH with D52S, Y53G, S63Q, V64R
VL: B1 VL
notes: IgG
B6: L3.PY/H2.YQ (antibody, V domains shown)
VH: B1 VH with D52S, S54Q
VL: B1 VL
notes: IgG
B7: L3.PY/H3.AE (antibody, V domains shown)
VH: B1 VH with D52S, Y53G, S104A, G105E
VL: B1 VL
notes: IgG
B8: L3.PY/H3.AQ (antibody, V domains shown)
VH: B1 VH with D52S, Y53G, S104A, G105Q
VL: B1 VL
notes: IgG
B9: L3.PY/H3.TAQ (antibody, V domains shown)
VH: B1 VH with D52S, Y53G, A97T, S104A, G105Q
VL: B1 VL
notes: IgG
B10: L3.PY/H3.YA (antibody, V domains shown)
VH: B1 VH with D52S, Y53G, A103Y, S104A
VL: B1 VL
notes: IgG
B11: L3.PY/L1.AH/H2.DY (antibody, V domains shown)
VH: B1 VH
VL: B1 VL with S31A, S32H
notes: IgG
B12: L3.PY/L1.AH/H2.HA (antibody, V domains shown)
VH: B1 VH with D52S, Y53H, S54A
VL: B1 VL with S31A, S32H
notes: IgG
B13: L3.PY/L1.AH/H2.LT (antibody, V domains shown)
VH: B1 VH with D52S, Y53L, S54T
VL: B1 VL with S31A, S32H
notes: IgG
B14: COMBO_Rd4_6nM_C21 (antibody, V domains shown)
VH: EVQLLESGGGLVQPGGSLRLSCAASGFTFSSYPMSWVRQAPGKGLEWVSAIGGSGGSLPYADSVKGRFTISRDNSKNTLYLQMNSLRAEDTAVYYCARYWPMDSWGQGTLVTVSS
VL: EIVLTQSPGTLSLSPGERATLSCRASQSVSAAYLAWYQQKPGQAPRLLMYDASIRATGIPDRFSGSGSGTDFTLTISRLEPEDFAVYYCQQYMCWPLTFGQGTKVEIK
notes: IgG
B15: COMBO_Rd4_6nM_C22 (antibody, V domains shown)
VH: B14 VH with P33A, S35N, I51C, G52L, G53D, L58T, P59Y
VL: B14 VL with A31S, A32S, M93Q, C94G
notes: IgG
B16: COMBO_Rd4_6nM_C25 (antibody, V domains shown)
VH: B14 VH with L58T, P59Y, S104P
VL: B14 VL with A31S, A32P, M93Q, C94S
notes: IgG
B17: P5A2_VHVL (antibody, V domains shown)
VH: B14 VH with P33A, S35N, G52S, G53D, L58T, P59Y, S104I
VL: B14 VL with A31S, A32S, M93G, C94S
notes: IgG
B18: P5C1_VHVL (antibody, V domains shown)
VH: B14 VH with L58T, P59Y
VL: B14 VL with A31S, A32T, M49I, I54S, T57P, M93S, C94T, W95S
notes: IgG; also called PC1
B19: COMBO_Rd4_6nM_C12 (antibody, V domains shown)
VH: EVQLLESGGGLVQPGGSLRLSCAASGFTFSSYPMSWVRQAPGKGLEWVSAALGSGGSTYYADSVKGRFTISRDNSKNTLYLQMNSLRAEDTAVYYCARYWPMDSWGQGTLVTVS
VL: B14 VL with A32S, C94S
notes: IgG
B20: A02_Rd4_0.6nM_C18 (antibody, V domains shown)
VH: B14 VH with P33A, S35N, I51V, G52L, G53D, L58T, P59Y, D103S, S104L
VL: B14 VL with A31E, A32L, M93F, C94G
notes: IgG
B21: COMBO_Rd4_0.6nM_C22 (antibody, V domains shown)
VH: B14 VH with P33A, S35N, G52S, G53D, L58R, P59W, A97T, S104I
VL: B14 VL with Q27V, S28R, A31S, A32T, C94K
notes: IgG; also called COM22

The binders below were run against T3, cynomolgus monkey BCMA (cynomolgus monkey, UniProt A0A2K5UD97 1-53) (assay: SPR, IgG immobilised, 37 C).
T3 construct: Soluble analyte in SPR; construct not described; also called cyBCMA; Cyno BCMA
T3 sequence (A0A2K5UD97 entry or part of it): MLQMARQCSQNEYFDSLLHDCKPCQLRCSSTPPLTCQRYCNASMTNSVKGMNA
Protocol: (§1) All experiments were performed on a Bio-Rad Proteon XPR36 surface Plasmon resonance biosensor (Bio-Rad, Hercules, Calif.). […] The analysis temperature for the immobilization was 25° C. and the running buffer was HBS-T+(10 mM HEPES, 150 mM NaCl, 0.05% Tween-20, pH 7.4). Channels were activated in the analyte (horizontal) direction by injecting a mixture of 1 mM ECD and 0.25 mM NHS for 3 minutes at a flow rate of 30 μL/min. IgGs were immobilized on the activated spots by injecting them in the ligand (vertical) direction at 20 μg/mL in 10 mM Acetate pH 4.5 buffer for 1.5 minutes at […]. The activated surfaces were blocked by injecting 1M ethanolamine, pH 8.5 in the analyte direction for 3 minutes at 30 μL/min.
(§2) The analysis temperature for the BCMA binding analysis was 37° C. or 25° C. in a running buffer of HBS-T+, supplemented with 1 mg/mL BSA. A kinetic titration method was employed for the interaction analysis as described in Abdiche, et al. Human BCMA (huBCMA) or cynomolgus monkey BCMA (cyBCMA) analyte was injected in the analyte direction using a series of injections from low to high concentration. The concentrations used were 0.08 nM, 0.4 nM, 2 nM, 10 nM and 50 nM (a 5-membered series, with a 5-fold dilution factor and top concentration of 50 nM). The association time for a given analyte dilution was two minutes. Immediately after the 50 nM BCMA injection, dissociation was monitored for 2 hours.
(§3) The sensorgrams were double-referenced and fit to a 1:1 Langmuir with mass transport kinetic titration model in BIAevaluation Software version 4.1.1 (GE Lifesciences, Piscataway, N.J.).

Row | Binder | Kd [nM] | T ½ [min] | koff [s⁻¹] | kon [M⁻¹ s⁻¹]
1 | B1 | 2.76 | 1.87 | 0.00618 | 2.24e+06
2 | B2 | 3.79 | 1.53 | 0.00755 | 1.99e+06
3 | B3 | 3.63 | 1.53 | 0.00757 | 2.09e+06
4 | B4 | 6.16 | 0.91 | 0.0126 | 2.05e+06
5 | B5 | 3.02 | 1.76 | 0.00658 | 2.18e+06
6 | B6 | 2.53 | 1.86 | 0.00621 | 2.46e+06
7 | B7 | 1.79 | 2.29 | 0.00504 | 2.82e+06
8 | B8 | 1.94 | 2.14 | 0.00539 | 2.77e+06
9 | B9 | 1.7 | 2.64 | 0.00437 | 2.57e+06
10 | B10 | 1.88 | 2.14 | 0.0054 | 2.87e+06
11 | B11 | 1.95 | 2.56 | 0.00451 | 2.32e+06
12 | B12 | 1.7 | 2.63 | 0.00439 | 2.58e+06
13 | B13 | 1.35 | 3.91 | 0.00296 | 2.19e+06

What follows are binders tested against T1, Human BCMA (assay: SPR, IgG immobilised, 37 C).
Protocol: as §1, §2, §3

Row | Binder | Kd [nM] | T ½ [min] | koff [s⁻¹] | kon [M⁻¹ s⁻¹]
14 | B1 | 0.53 | 8.37 | 0.00138 | 2.6e+06
15 | B2 | 0.6 | 7.89 | 0.00147 | 2.43e+06
16 | B3 | 0.54 | 8.95 | 0.00129 | 2.4e+06
17 | B4 | 0.82 | 5.31 | 0.00218 | 2.64e+06
18 | B5 | 0.46 | 9.75 | 0.00119 | 2.56e+06
19 | B6 | 0.6 | 7.41 | 0.00156 | 2.58e+06
20 | B7 | 0.42 | 8.32 | 0.00139 | 3.29e+06
21 | B8 | 0.56 | 6.69 | 0.00173 | 3.08e+06
22 | B9 | 0.37 | 10.1 | 0.00114 | 3.08e+06
23 | B10 | 0.37 | 9.82 | 0.00118 | 3.15e+06
24 | B11 | 0.5 | 7.62 | 0.00152 | 3.05e+06
25 | B12 | 0.54 | 6.37 | 0.00181 | 3.33e+06
26 | B13 | 0.39 | 9.38 | 0.00123 | 3.16e+06

These binders were tested against T2, Human BCMA (assay: SPR, IgG immobilised, human BCMA analyte).
Method in brief: (§4)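 IgG amine-coupled to the chip; human or cynomolgus BCMA analyte injected by kinetic titration at 0.08–50 nM (2 min each), 2 h dissociation, in HBS-T+ with 1 mg/mL BSA, pH 7.4, at 37° C or 25° C. Double-referenced sensorgrams fit to 1:1 Langmuir with mass transport.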

Row | Binder | Kd [nM] | koff [s⁻¹] | kon [M⁻¹ s⁻¹]
27 | B14 | 0.006 | 7.34e-05 | 1.17e+07
28 | B15 | 0.256 | 0.000775 | 3.03e+06
29 | B16 | 0.014 | 0.000113 | 7.98e+06
30 | B17 | 5.57 | 0.0387 | 6.96e+06
31 | B18 | 5.99 | 0.0692 | 1.16e+07
32 | B19 | 0.02 | 0.00027 | 1.38e+07
33 | B20 | 0.048 | 0.000229 | 4.73e+06
34 | B21 | 0.036 | 7.15e-05 | 1.97e+06

These binders were tested against T4, Cynomolgus monkey BCMA (cynomolgus monkey) (assay: SPR, IgG immobilised, cyno BCMA analyte).
T4 construct: Soluble analyte in SPR; also called cyBCMA; Cyno BCMA
Method in brief: as §4

Row | Binder | Kd [nM] | koff [s⁻¹] | kon [M⁻¹ s⁻¹]
35 | B14 | 0.078 | 0.000248 | 3.17e+06
36 | B15 | 0.972 | 0.00165 | 1.7e+06
37 | B16 | 0.079 | 0.000226 | 2.85e+06
38 | B17 | 10.2 | 0.0164 | 1.61e+06
39 | B18 | 15.2 | 0.0538 | 3.53e+06
40 | B19 | 0.148 | 0.000486 | 3.29e+06
41 | B20 | 0.197 | 0.000639 | 3.24e+06
42 | B21 | 0.05 | 6.66e-05 | 1.34e+06
